In assay [1] the target is T1, chimeric TfR1 consisting of human apical domain grafted on mouse TfR1 ectodomain (SEQ ID NO:57) (human/mouse chimera).
T1 construct: His-tagged ELISA coat; also called h/m apical domain chimera
T1 chain: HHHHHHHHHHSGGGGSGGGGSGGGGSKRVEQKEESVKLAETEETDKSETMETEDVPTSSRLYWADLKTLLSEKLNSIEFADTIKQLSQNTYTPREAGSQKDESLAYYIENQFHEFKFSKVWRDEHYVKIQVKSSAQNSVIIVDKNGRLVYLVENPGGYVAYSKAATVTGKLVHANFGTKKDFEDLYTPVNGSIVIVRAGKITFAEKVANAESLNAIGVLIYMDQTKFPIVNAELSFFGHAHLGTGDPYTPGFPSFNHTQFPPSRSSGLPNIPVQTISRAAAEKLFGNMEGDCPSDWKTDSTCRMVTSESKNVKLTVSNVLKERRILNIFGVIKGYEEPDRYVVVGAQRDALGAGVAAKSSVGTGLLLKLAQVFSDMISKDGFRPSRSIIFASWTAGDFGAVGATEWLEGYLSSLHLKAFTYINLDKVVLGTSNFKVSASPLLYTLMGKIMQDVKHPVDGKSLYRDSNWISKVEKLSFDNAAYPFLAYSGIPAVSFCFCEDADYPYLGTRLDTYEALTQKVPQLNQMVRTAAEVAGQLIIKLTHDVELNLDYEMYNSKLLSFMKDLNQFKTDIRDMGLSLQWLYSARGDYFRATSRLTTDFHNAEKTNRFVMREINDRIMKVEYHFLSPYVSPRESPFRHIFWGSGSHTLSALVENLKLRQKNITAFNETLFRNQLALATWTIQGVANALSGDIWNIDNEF
Put plainly: indirect ELISA, plate coated with 1 ug/ml h/m apical domain chimera (axis labelled TfR (ng/ml)) [C]. How it is done: The coated plates were then blocked. Dilution series of mouse IgG of the analyzed antibodies were prepared in PBS and incubated on the ELISA plates. Unbound antibodies were then washed off before incubating wells with a HRP-conjugated secondary, anti-mouse-IgG for 1 h. Plates were then washed again before addition of HRP substrate TMB for development and detection of antibody binding to the wells. TMB development was stopped by adding 0.5 M H₂SO₄ to the wells and ELISA responses measured as the OD at 450 nm in an ELISA plate reader.

Assay [2] addresses T2, human TfR1, recombinant, construct not stated for the experiment (human, UniProt P02786 89-760, limits assumed).
T2 construct: Biotinylated in the binning and scFv-Fc BLI experiments; also called hTfR1; biotinylated hTfR1
In words: indirect ELISA, plate coated with 1 ug/ml recombinant hTfR1 ectodomain, Fab 1:3 dilution series, anti-human IgG F(ab')2-HRP [lower panel hTfR1].

T2 sequence (P02786 89-760 limits assumed): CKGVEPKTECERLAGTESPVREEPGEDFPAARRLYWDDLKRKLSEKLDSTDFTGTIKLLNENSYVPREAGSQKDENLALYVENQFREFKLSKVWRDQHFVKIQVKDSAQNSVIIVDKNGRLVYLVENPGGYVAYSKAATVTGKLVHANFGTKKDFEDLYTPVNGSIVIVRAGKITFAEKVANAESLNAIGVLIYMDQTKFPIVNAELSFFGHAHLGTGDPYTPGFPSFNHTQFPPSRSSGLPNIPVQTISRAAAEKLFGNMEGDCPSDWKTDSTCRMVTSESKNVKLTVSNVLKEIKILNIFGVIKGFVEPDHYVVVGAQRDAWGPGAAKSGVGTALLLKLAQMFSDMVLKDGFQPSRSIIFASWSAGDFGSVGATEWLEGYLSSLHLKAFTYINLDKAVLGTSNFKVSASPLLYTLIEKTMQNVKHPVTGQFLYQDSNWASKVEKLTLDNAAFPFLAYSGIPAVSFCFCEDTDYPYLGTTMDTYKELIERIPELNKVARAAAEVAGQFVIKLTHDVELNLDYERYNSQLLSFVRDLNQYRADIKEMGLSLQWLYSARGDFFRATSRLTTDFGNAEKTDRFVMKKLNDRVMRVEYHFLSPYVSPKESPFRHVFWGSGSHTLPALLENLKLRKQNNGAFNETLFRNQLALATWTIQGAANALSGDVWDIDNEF

B1: mouse monoclonal antibody 26D3 (antibody, mouse IgG2a, V domains shown)
VH: EVQLQQFGVELVKPGASVKISCKASGYIFTDYNMDWVKQSHGKSLEWIGDINPDYDTTSYNEKFKGKATLTVDKSSSTAYMELRSLTSEDTAVYYCARGGYSGSSYYHPMDYWGQGTSVTVSS
VL: DIVMSQSPSSLAVSVGEKITMSCKSSQSLLYSTNQKNYLAWYQQKPGQSPELLIYWASTRESGVPDRFTGSGSGTDFTLTISNVRAEDLAVYYCQQYFIYPRTFGGGTKLEIK
In the case of B1, the binding result in assay [1] is on record as “no binding (tested: about 650 ng/ml)”.

B2: h26D3 Fab (humanized 26D3) (Fab, V domains shown)
VH: EVQLVQSGAEVKKPGSSVKVSCKASGYIFTDYNMDWVRQAPGQGLEWIGDINPDYDTTSYNEKFKGRATLTVDKSTSTAYMELSSLRSEDTAVYYCARGGYSGSSYYHPMDYWGQGTLVTVSS
VL: DIQMTQSPSSVSASVGDRVTITCKSSQSLLYSTNQKNYLAWYQQKPGKAPKLLIYWASTRESGVPSRFSGSGSGTDFTLTISSLQPEDFATYYCQQYFIYPRTFGQGTKVEIK
notes: His-tagged Fab from ExpiCHO cells
One may read the EC50 (read off the curve) as the midpoint of the concentration-response curve. B2: the 50% effective concentration (EC50 (read off the curve)) in assay [2] is approximately 500 nM.

The values above are taken from patent publication US20260265396A1 (BIOARCTIC, published 2026).
